The target of test [1] is human CD3 on Jurkat cells (human). The test can be described thus: FACS. In general terms: Flow cytometry measures light scatter and fluorescence of single cells or particles in a stream.
Test [2] concerns the target human CD3 epsilon/delta heterodimer, Fc-tagged (human). Briefly: SPR, 25C antigen-capture.
Test [3] has the same target. Briefly: SPR, 25C antibody-capture.
Test [4] concerns the target T1, cynomolgus CD3 on T cells (cynomolgus monkey).
T1 chain: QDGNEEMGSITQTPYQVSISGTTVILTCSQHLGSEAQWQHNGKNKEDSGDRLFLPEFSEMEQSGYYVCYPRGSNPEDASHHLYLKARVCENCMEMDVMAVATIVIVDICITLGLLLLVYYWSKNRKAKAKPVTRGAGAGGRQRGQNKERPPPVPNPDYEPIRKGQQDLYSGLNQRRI
The test can be described thus: FACS.

Another test addresses human PSMA on cells (human). Briefly: FACS, 22RV1.
For test [5], the target named is human CD3 on Jurkat cells (human). Briefly: FACS. This is another data set of the same source.
Test [6] has the same target. Briefly: FACS. The source holds these as a separate data set.
Test [7] deals with human CD3 epsilon/delta heterodimer, Fc-tagged (human). Briefly: SPR, 25C antigen-capture. This is another data set of the same source. Background: Surface plasmon resonance follows binding to a sensor surface in real time, without labels.
Test [8] has as its target human PSMA, N-terminal 6xHis (soluble) (human). Briefly: SPR, 37C.

The text below walks through data of US20210403595 (published 2021).

Where two headings read alike, the source gives them in different places.

The term EC50 denotes the midpoint of the concentration-response curve. Low values mean greater potency, high ones weaker potency. A word on the Kd: it is the equilibrium constant for the complex coming apart. High values mean a looser complex, low ones a tighter complex.

human CD3 epsilon/delta heterodimer, Fc-tagged (human), sequence (chain, as listed by the source mutant, chain 1 of 2): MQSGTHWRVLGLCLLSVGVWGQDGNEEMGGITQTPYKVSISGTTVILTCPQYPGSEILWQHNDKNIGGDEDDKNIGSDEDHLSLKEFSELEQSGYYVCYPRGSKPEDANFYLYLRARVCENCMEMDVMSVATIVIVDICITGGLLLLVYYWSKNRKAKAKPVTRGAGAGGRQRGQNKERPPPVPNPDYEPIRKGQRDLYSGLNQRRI
human CD3 epsilon/delta heterodimer, Fc-tagged (human), sequence (chain, as listed by the source mutant, chain 2 of 2): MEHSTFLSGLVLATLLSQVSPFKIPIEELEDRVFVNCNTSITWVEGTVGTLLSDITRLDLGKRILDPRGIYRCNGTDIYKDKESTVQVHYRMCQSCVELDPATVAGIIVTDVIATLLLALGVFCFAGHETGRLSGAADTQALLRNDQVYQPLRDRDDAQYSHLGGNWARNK
human CD3 on Jurkat cells (human), sequence (chain, as listed by the source, chain 1 of 2): as the sequence (chain, as listed by the source mutant, chain 1 of 2) above
human CD3 on Jurkat cells (human), sequence (chain, as listed by the source, chain 2 of 2): as the sequence (chain, as listed by the source mutant, chain 2 of 2) above
human PSMA on cells (human), sequence (A4UU12 whole entry): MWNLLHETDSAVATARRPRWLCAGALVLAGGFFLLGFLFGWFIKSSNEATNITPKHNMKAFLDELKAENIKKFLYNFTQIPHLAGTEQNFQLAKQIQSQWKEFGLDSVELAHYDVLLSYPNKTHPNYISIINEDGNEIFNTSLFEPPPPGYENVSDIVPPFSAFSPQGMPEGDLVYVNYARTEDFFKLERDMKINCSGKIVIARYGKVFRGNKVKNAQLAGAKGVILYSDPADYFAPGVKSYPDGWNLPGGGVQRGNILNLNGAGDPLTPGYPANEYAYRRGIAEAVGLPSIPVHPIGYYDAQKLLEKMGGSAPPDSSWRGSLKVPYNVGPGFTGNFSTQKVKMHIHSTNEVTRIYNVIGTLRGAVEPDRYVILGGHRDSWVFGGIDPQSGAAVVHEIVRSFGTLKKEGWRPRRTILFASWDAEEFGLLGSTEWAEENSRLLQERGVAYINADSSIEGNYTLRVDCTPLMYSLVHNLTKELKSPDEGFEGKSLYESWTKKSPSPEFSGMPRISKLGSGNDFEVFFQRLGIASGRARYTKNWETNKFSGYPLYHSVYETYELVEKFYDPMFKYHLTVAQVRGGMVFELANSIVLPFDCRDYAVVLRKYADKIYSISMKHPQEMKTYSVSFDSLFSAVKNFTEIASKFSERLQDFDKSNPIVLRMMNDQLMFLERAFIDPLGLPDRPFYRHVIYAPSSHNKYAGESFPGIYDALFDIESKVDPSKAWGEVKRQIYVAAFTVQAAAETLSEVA
human PSMA, N-terminal 6xHis (soluble) (human), sequence (A4UU12 whole entry): as above

B1: H1H7232P (antibody, V domains shown)
VH: EVQLVESGGGLVHPGRSLRLSCAASGFTFDDYTMHWVRQAPGKGLEWVSDISWNSGSRGYADSVKGRFTISRDNAENSLYLQMNSLRAEDTALYYCAKDKSGYGHYYYYAMDVWGQGTTVTVSS
VL: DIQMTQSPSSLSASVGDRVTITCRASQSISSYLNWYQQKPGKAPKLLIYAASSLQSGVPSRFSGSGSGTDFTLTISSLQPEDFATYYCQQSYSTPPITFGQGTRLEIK
Consider B1, for which the concentration giving a half-maximal response (EC50) in test [1] came out at 1.5 nM. Moreover, the Kd in [2] came out at 10 nM; in [3], 220 nM.

B2: H1H2690N (antibody, V domains shown)
VH: EVQLVESGGGLVQPGRSLRLSCAASGFTFDDYTMHWVRQAPGKGLEWVSGISWNSGSIGYADSVKGRFTISRDNAKKSLYLQMNSLRAEDTALYYCAKDNSGYGHYYYGMDVWGQGTTVTVAS
VL: EIVMTQSPATLSVSPGERATLSCRASQSVSSNLAWYQQKPGQAPRLLIYGASTRATGIPARFSGSGSGTEFTLTISSLQSEDFAVYYCQHYINWPLTFGGGTKVEIK
In the case of B2, the midpoint of the response in [4], the EC50, lay at 5.66 nM.

B3: BSPSMA/CD3-001 PSMA arm (antibody, V domains shown)
VH: QVQLVESGGGVVQPGRSLRLSCAASGFTFITYGMHWVRQAPGKGLEWVAIIYYDESNKYYADSVKGRFTISRDISKNTLYLQMNGLRAEDTAVYYCARAPRVAVEEDYSYYYGMDVWGQGTTVTVSS
VL: EIVMTQSPATLSVSPGERAILSCRASQNINSNLAWYQQKPGQAPRLLIYGASTRATGVPARFSGSGSGTEFTLTIRSLQSEDFAVYYCQQYYNWPITFGHGTRLEIK
As to B3, in the test with human PSMA on cells, the response was half-maximal at 78.5 nM (EC50).

B4: H2M2689N (antibody, V domains shown)
VH: QVQLVESGGGVVQPGRSLRLSCAASGFTFSRKGMHWVRQAPVKGLEWVAVISYDGSNKYYADSVKGRFTISRDNSKNTLYLQMNSLTAEDTAVYYCAKEGGHDYGGTFDYWGQGTLVTVSS
VL: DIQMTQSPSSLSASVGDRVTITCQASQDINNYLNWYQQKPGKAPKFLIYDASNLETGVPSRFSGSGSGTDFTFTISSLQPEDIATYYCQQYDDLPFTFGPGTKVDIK
Take B4: the binding result in [5] is “no binding”.

B5: H1H7279P (antibody, V domains shown)
VH: EVQLVESGGGLVKPGGSLRISCAASGFSFINAWMNWVRQAPGKGLEWVGRIKSISDGGTTDYAASVKGRFTISREDSKNMLFLEMNSLKTEDTAVFYCTTEVARTPNYWGRGTLVTVSS
VL: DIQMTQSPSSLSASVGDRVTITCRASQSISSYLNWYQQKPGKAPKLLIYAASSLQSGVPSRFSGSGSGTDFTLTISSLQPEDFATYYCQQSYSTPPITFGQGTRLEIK
As to B5, the binding result in test [6] and in test [7] was “no binding” throughout.

B6: H1H11835P2 (antibody, V domains shown)
VH: EVQLVESGGGLVQSGGSLRLSCEASGFTFSNYWMTWIRQGPGKGLEWVANIKPDGTENYYVDSVKGRFTISRDNARNSLYLQMTSLKAEDTAVYYCGRMIQFVINIWGQGTLVTVSS
VL: DIQMTQSPSSLSASVGDSVTITCRASQSINNYLNWYQQKPGKAPKLLIYTASSLLSGVPSRFSGSGSGTDFTLTISGLHPEDFATYFCQQSFSTPPITFGQGTRLDIK
Regarding B6, the Kd in [8] was 14 nM. That is a double-digit nanomolar value.
